The source of these data is patent publication US20250197889.

As for “Nme2Cas9 (Neisseria meningitidis strain De10444/De11444 Cas9), recombinant purified protein”, the “in vitro cleavage of a target DNA by Cas9-sgRNA (10:1 ratio of Acr:Cas9)” value with AcrE2 was “Nme2Cas9 efficiently cleaves a target containing a protospacer with an N4CC PAM in the presence of AcrE2 and AcrIIC5Smu”. Further, the “in vitro cleavage of a target DNA by Cas9-sgRNA (10:1 Acr:Cas9 molar ratio)” value is “Acrs IIC1Nme, -IIC2Nme, -IIC3Nme and -IIC4Hpa inhibited Nme2Cas9 gene editing activity” in the data set on AcrIIC1Nme; “Acrs IIC1Nme, -IIC2Nme, -IIC3Nme and -IIC4Hpa inhibited Nme2Cas9 gene editing activity” in the data set with AcrIIC2Nme; “Acrs IIC1Nme, -IIC2Nme, -IIC3Nme and -IIC4Hpa inhibited Nme2Cas9 gene editing activity” in the data set on AcrIIC3Nme; “Acrs IIC1Nme, -IIC2Nme, -IIC3Nme and -IIC4Hpa inhibited Nme2Cas9 gene editing activity” with AcrIIC4Hpa; “AcrIIC5Smu did not inhibit Nme2Cas9 in vitro even at 10-fold excess” with AcrIIC5Smu.

On to Nme1Cas9-Nme2Cas9PID chimera, for which the “in vitro cleavage by the Nme1Cas9-Nme2Cas9PID chimera in the presence of Acr” value with AcrIIC5Smu was “no inhibition by AcrIIC5Smu on this protein chimera was observed”.

As to SmuCas9 (Simonsiella muelleri Cas9), the “Type II-C Cas9 ortholog cleavage tested for sensitivity to anti-CRISPR proteins” value in the data set with certain anti-CRISPRs is given as “all three Type II-C Cas9 orthologs are inhibited by certain anti-CRISPRs”.
